Molecular target: T1, human pyruvate dehydrogenase E1alpha/E1beta subunit complex, co-expressed in and purified from E. coli M15, P08559
T1 chain 1: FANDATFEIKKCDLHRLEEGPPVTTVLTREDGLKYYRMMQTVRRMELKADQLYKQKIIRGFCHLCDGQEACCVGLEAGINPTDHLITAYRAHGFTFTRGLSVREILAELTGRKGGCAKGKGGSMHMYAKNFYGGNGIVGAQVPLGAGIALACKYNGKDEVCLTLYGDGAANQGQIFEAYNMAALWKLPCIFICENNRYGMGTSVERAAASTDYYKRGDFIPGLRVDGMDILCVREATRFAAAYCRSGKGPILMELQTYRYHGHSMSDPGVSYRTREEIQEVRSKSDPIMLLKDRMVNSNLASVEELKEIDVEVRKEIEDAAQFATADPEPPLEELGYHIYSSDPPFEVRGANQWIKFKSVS
T1 chain 2: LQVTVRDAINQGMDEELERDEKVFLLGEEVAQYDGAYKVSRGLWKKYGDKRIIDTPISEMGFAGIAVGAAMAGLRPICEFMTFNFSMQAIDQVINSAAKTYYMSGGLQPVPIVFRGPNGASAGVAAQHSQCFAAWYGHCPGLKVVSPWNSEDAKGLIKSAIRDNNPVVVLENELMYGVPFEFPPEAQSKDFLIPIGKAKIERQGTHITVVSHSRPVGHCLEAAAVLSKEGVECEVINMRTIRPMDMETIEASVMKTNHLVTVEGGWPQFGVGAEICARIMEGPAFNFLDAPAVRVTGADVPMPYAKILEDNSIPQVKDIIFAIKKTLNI

B1: Arabidopsis thaliana pyruvate dehydrogenase kinase (PDHK) fusion protein, product of clone YA5 expressed in E. coli from construct pZTa5 (pTrcHisB vector) (protein)
chain: MAVKKACEMFPKSLIEDVHKWGCMKQTGVSLRYMMEFGSKPTERNLLISAQFLHKELPIRVARRAIELQTLPYGLSDKPAVLKVRDWYLESFRDMRAFPEIKDSGDEKDFTQMIKAVKVRHNNVVPMMALGVNQLKKGMNSGNLDEIHQFLDRFYLSRIGIRMLIGQHVELHNPNPPLHTVGYIHTKMSPMEVARNASEDARSICFREYGSAPEINIYGDPSFTFPYVPTHLDLMMYELVKNSLRAVQERFVDSDRVAPPIRIIVADGIEDVTIKVSDEGGGIARSGLPRIFTYLYSTARNPLEEDVDLGIADVPGTMGGYGYGLPISRLYARYFGGDLQIISMEGYGTDAYLHLSRLGDSQEPLP
- in vitro phosphorylation (incorporation of 32P from gamma-32P-ATP into the E1 subunit; SDS-PAGE and autoradiography; 2, 5, 10, 15, 20 min): time-dependent (incubation times of 2, 5, 10, 15, or 20 min) in vitro phosphorylation of the E1α/E1β complex substrate by the action of the plant PDHK (clone YA5) fusion protein

From patent publication US6500670
